Test results as given in US20190345535.
“And” between values parts separate entries of the source, which are not always exact repeats. Identical values can stand only once.

Experiments:
[1] = system: GFP^2-Pflu-H2-RLuc2 fusion protein
[2] = system: GFP^2-Pflu-H3-RLuc2 fusion protein
[3] = system: GFP^2-Pflu3-RLuc2 fusion protein (Pflu sensor 3)
[4] = system: GFP^2-plas1-RLuc2 fusion protein (BRET^2 plasmin sensor)
[5] = system: GFP^2-Pflu-H1-RLuc2 fusion protein
[6] = system: GFP^2-Pflu-H4-RLuc2 fusion protein
[7] = system: GFP^2-Pflu2-RLuc2 fusion protein (Pflu sensor 2)
[8] = system: GFP^2-Pflu1-RLuc2 fusion protein (Pflu sensor 1)

crude bacterial protease from Pseudomonas fluorescens strain 65
BRET^2 response to 1 nM bacterial protease in buffer, 10 minutes [1]: 31.9%
Bacterial protease response (%), BRET^2, 1 nM in UHT milk [1]: 6.6%
Selectivity (ratio of Bacterial protease response to Plasmin response), UHT milk [1]: 0.8
BRET^2 response to 1 nM bacterial protease in buffer, 10 minutes [2]: 89.7%
Bacterial protease response (%), BRET^2, 1 nM in UHT milk [2]: 36.3%
More responsive to 1 nM bacterial protease compared to Pflu H1 sensor, buffer [2]: 82%
More responsive to 1 nM bacterial protease compared to Pflu H2 sensor, buffer [2]: 182%
More responsive to 1 nM bacterial protease compared to Pflu H4 sensor, buffer [2]: 39%
Selectivity (ratio of Bacterial protease response to Plasmin response), UHT milk [2]: 40.3
Selectivity for bacterial protease over bovine plasmin, protease concentration by BSA standard [2]: 32 fold
Selectivity for bacterial protease over bovine plasmin, raw milk [2]: 376 fold
Selectivity for bacterial protease over human plasmin [3]: 563 fold
Selectivity for bacterial protease over human plasmin, protease concentration by BSA standard [3]: 48.5 fold
Linear range (10%-90% BRET^2 response), 50% full fat UHT milk [4]: 10 nM and 90 nM
Linear range (10%-90% BRET^2 response), 50% full fat UHT milk, protease concentration by BSA standard [4]: 116 nM and 1040 nM
Selectivity for bacterial protease over bovine plasmin [4]: 2 fold
Selectivity for bacterial protease over bovine plasmin, protease concentration by BSA standard [4]: 0.2 fold
Selectivity for bacterial protease over human plasmin [4]: 0.1 fold
Selectivity for bacterial protease over human plasmin, protease concentration by BSA standard [4]: 0.01 fold
BRET^2 response to 1 nM bacterial protease in buffer, 10 minutes [5]: 49.5%
Bacterial protease response (%), BRET^2, 1 nM in UHT milk [5]: 6.7%
Selectivity (ratio of Bacterial protease response to Plasmin response), UHT milk [5]: 1.3
BRET^2 response to 1 nM bacterial protease in buffer, 10 minutes [6]: 64.5%
Bacterial protease response (%), BRET^2, 1 nM in UHT milk [6]: 17.1%
Selectivity (ratio of Bacterial protease response to Plasmin response), UHT milk [6]: 2.7
Linear range (10%-90% BRET^2 response), 50% full fat UHT milk, protease concentration by BSA standard [7]: 6.7 nM and 13.8 nM
Selectivity for bacterial protease over human plasmin [7]: 353 fold
Selectivity for bacterial protease over human plasmin, protease concentration by BSA standard [7]: 30 fold
Reduction in the BRET ratio, 1 nM protease, UHT milk, 10 minutes [8]: 80.6% reduction in the BRET ratio with strain 65 bacterial proteases
Reduction in the BRET ratio, 1 nM protease, buffer, 10 minutes [8]: 95% reduction in the BRET ratio
Selectivity for bacterial protease over bovine plasmin [8]: 238 fold
Selectivity for bacterial protease over bovine plasmin, protease concentration by BSA standard [8]: 20 fold
Selectivity for bacterial protease over human plasmin [8]: 174 fold
Selectivity for bacterial protease over human plasmin, protease concentration by BSA standard [8]: 15 fold
Sensitivity to bacterial proteases relative to the plasmin sensor, raw milk, 10 minute incubation [8]: 10× more sensitive

crude bacterial protease from Pseudomonas fluorescens strain 117
Reduction in the BRET ratio, 1 nM protease, UHT milk, 10 minutes [8]: 71.2% reduction with the bacterial protease from strain 117
Reduction in the BRET ratio, 1 nM protease, buffer, 10 minutes [8]: 95% reduction in the BRET ratio
